Results published in paper doi:10.1101/2024.05.09.593331.

System: His6-Ubl1 in complex with N;Nucleocapsid (N) protein (SARS-CoV-2;SARS-CoV-2)
Assay: EMSA
Conditions: 50 mM Tris-HCl pH 8, 150 mM NaCl, 5 mM CaCl2 ([…]

Q: Which Kd does the source give for 5' UTR 1-245 ssRNA here?
A: 6.2 nM
